T1: recombinant human TIGIT (human, UniProt Q495A1 22-141, limits assumed)
T1 construct: recombinant human TIGIT used in Carterra SPR; also called hTIGIT
T1 sequence (looked up): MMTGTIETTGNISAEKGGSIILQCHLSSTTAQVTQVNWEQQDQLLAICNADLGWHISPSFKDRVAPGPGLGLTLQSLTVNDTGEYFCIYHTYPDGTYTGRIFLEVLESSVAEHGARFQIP

B1: TIGIT-SC34 (Fc fusion)
VHH: EVQLVESGGGLVQPGGSLRLSCAASGTTFSPYTMGWFRQAPGKEREFVASINSGSRTNYADSVKGRFTISADNSKNTAYLQMNSLKPEDTAVYYCVRSEIGWGQGTLVTVSS
notes: VHH-Fc fusion in assay
B2: TIGIT-SC108 (Fc fusion)
VHH: EVQLVESGGGLVQPGGSLRLSCAASGNTFSGGFMGWFRQAPGKEREWVASVLRGGYTWYADSVKGRFTISADNSKNTAYLQMNSLKPEDTAVYYCANGGRVWWAFDYWGQGTLVTVSS
notes: VHH-Fc fusion in assay
B3: TIGIT-SC21 (Fc fusion)
VHH: EVQLVESGGGLVQPGGSLRLSCAASGNTFSGGFMGWFRQAPGKEREWVASVLRGGYTWYADSVKGRFTISADNSKNTAYLQMNSLKPEDTAVYYCARGGAGSDWFGPWGQGTLVTVSS
notes: VHH-Fc fusion in assay
B4: TIGIT-SC10 (Fc fusion)
VHH: EVQLVESGGGLVQPGGSLRLSCAASGNTFSGGFMGWFRQAPGKEREWVASVLRGGYTWYADSVKGRFTISADNSKNTAYLQMNSLKPEDTAVYYCASDPWGTRYFDHWGQGTLVTVSS
notes: VHH-Fc fusion in assay
B5: TIGIT-SC63 (Fc fusion)
VHH: EVQLVESGGGLVQPGGSLRLSCAASGRAIGSYGMGWFRQAPGKEREFVATISVSGVYTYYADSVKGRFTISADNSKNTAYLQMNSLKPEDTAVYYCARATPGGVVPWGQGTLVTVSS
notes: VHH-Fc fusion in assay
B6: TIGIT-SC170 (Fc fusion)
VHH: EVQLVESGGGLVQPGGSLRLSCAASGHTFSPSWMGWFRQAPGKEREWVASVLRGGYTWYADSVKGRFTISADNSKNTAYLQMNSLKPEDTAVYYCTTELRWELQQPDYWGQGTLVTVSS
notes: VHH-Fc fusion in assay
B7: TIGIT-SC47 (Fc fusion)
VHH: EVQLVESGGGLVQPGGSLRLSCAASGRALNMYVMGWFRQAPGKERELVAAIDWSGGSALYADSVKGRFTISADNSKNTAYLQMNSLKPEDTAVYYCASGDGYSMDYFDPWGQGTLVTVSS
notes: VHH-Fc fusion in assay
B8: TIGIT-SC39 (Fc fusion)
VHH: EVQLVESGGGLVQPGGSLRLSCAASGRTVSSHAMGWFRQAPGKEREFVAAITSSGSTYYADSVKGRFTISADNSKNTAYLQMNSLKPEDTAVYYCASSYSSSSGLGDIWGQGTLVTVSS
notes: VHH-Fc fusion in assay
B9: TIGIT-SC14 (Fc fusion)
VHH: EVQLVESGGGLVQPGGSLRLSCAASGSISSIHAMGWFRQAPGKEREFVATISRSGVGTFYADSVKGRFTISADNSKNTAYLQMNSLKPEDTAVYYCASSYSSSSGLGDIWGQGTLVTVSS
notes: VHH-Fc fusion in assay
B10: TIGIT-SC77 (Fc fusion)
VHH: EVQLVESGGGLVQPGGSLRLSCAASGGAFSTVAMGWFRQAPGKEREAVASIWRSGDSTYYADSVKGRFTISADNSKNTAYLQMNSLKPEDTAVYYCASSYSSSSGLGDIWGQGTLVTVSS
notes: VHH-Fc fusion in assay
B11: TIGIT-SC3 (Fc fusion)
VHH: EVQLVESGGGLVQPGGSLRLSCAASGTFQRINAMGWFRQAPGKEREFVSTINWSGSNTYYADSVKGRFTISADNSKNTAYLQMNSLKPEDTAVYYCASSYSSSSGLGDIWGQGTLVTVSS
notes: VHH-Fc fusion in assay
B12: TIGIT-SC58 (Fc fusion)
VHH: EVQLVESGGGLVQPGGSLRLSCAASGFTLGYYVMGWFRQAPGKEREFVATINWSGTLTSYADSVKGRFTISADNSKNTAYLQMNSLKPEDTAVYYCARWVGPKYYFDYWGQGTLVTVSS
notes: VHH-Fc fusion in assay

Each binder was assayed against T1, recombinant human TIGIT (assay: SPR Carterra, average).
Method: Binding affinities of VHH-Fc proteins to recombinant human TIGIT were measured by SPR using a Carterra instrument (Table 10A). […] Average values reported from measurements from 1-2 samples.

First: B1
Second: B2
The Kd of the first is lower: at most 0.0105 nM for the first, 8.9 nM for the second. The first binds more tightly here.

Compared with B3, B4 is 23-fold lower in Kd: 7.57 nM for the first, 0.328 nM for the second. The second binds more tightly here.

B5 and B6 cannot be ordered by Kd: at most 0.156 nM for the first, at most 0.222 nM for the second.

B7 and B8 cannot be ordered by Kd: at most 0.204 nM for the first, at most 0.0423 nM for the second.

First: B9
Second: B10
The Kd of the first is lower: at most 0.00513 nM for the first, 2.07 nM for the second. The first binds more tightly here.

B11 and B12 cannot be ordered by Kd: at most 0.00502 nM for the first, at most 0.0118 nM for the second.

Compared with B1, B2 is higher in koff: at most 1e-05 s⁻¹ for the first, 0.00181 s⁻¹ for the second.

First: B3
Second: B4
The koff of the first is 2.9-fold higher: 0.000578 s⁻¹ for the first, 0.0002 s⁻¹ for the second.

B5 and B6 cannot be ordered by koff: at most 1e-05 s⁻¹ for the first, at most 1e-05 s⁻¹ for the second.

B7 and B8 cannot be ordered by koff: at most 1e-05 s⁻¹ for the first, at most 1e-05 s⁻¹ for the second.

Compared with B9, B10 is higher in koff: at most 1e-05 s⁻¹ for the first, 0.000837 s⁻¹ for the second.

B11 and B12 cannot be ordered by koff: at most 1e-05 s⁻¹ for the first, at most 1e-05 s⁻¹ for the second.

Compared with B1, B2 is 6.5-fold lower in kon: 1.31e+06 M⁻¹ s⁻¹ for the first, 203000 M⁻¹ s⁻¹ for the second.

Compared with B3, B4 is 6.5-fold higher in kon: 86600 M⁻¹ s⁻¹ for the first, 566000 M⁻¹ s⁻¹ for the second.

B5 and B6 are within 1.5-fold of each other in kon: 64300 M⁻¹ s⁻¹ for the first, 45000 M⁻¹ s⁻¹ for the second.

Compared with B7, B8 is 7-fold higher in kon: 48900 M⁻¹ s⁻¹ for the first, 342000 M⁻¹ s⁻¹ for the second.

Going from B9 to B10, the kon falls from 1.95e+06 M⁻¹ s⁻¹ to 1.17e+06 M⁻¹ s⁻¹ (1.7-fold).

First: B11
Second: B12
The kon of the first is 5.5-fold higher: 4.71e+06 M⁻¹ s⁻¹ for the first, 860000 M⁻¹ s⁻¹ for the second.

Source: patent publication US20260184782A1 (TWIST BIOSCIENCE, published 2026)
